These results are taken from patent publication US20120316071A1 (published 2012).

For experiment [1], the target named is T1, rHuman Erythropoietin R/Fc Chimera, CF (R&D Systems Cat#963-ER) (human, UniProt P19235 25-250).
T1 construct: Bought recombinant protein; also called EPO R/Fc; Epo R; Fc part of the bought chimera not given
T1 sequence (looked up): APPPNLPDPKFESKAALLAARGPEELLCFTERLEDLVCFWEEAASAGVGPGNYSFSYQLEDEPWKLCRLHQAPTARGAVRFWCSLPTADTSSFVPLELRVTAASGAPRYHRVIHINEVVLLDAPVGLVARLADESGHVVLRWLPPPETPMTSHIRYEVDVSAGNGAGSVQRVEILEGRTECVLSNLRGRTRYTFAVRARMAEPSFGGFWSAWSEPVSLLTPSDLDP
The experiment in a line: MSD multispot ECL, antigen spotted on plate; Fab 0.51 uM; blank spot 1096.

Experiment [2] has as its target T2, Recombinant Human DLL4 (R&D Systems Cat#1506-D4/CF) (human, UniProt Q9NR61 27-524).
T2 construct: Bought recombinant protein; also called delta-like protein 4; rHuman DLL4
The experiment is described as above.

Experiment [3] concerns the target T3, rHuman ErbB2/Fc Chimera, CF (R&D Systems Cat#1129-ER) (human, UniProt P04626 23-652).
T3 construct: Bought recombinant protein; also called human epidermal growth factor 2 receptor; Fc part of the bought chimera not given
Described as above.

In experiment [4] the target is T4, rHuman EGF R/Fc Chimera, CF (R&D Systems Cat#344-ER) (human, UniProt P00533 25-645).
T4 construct: Bought recombinant protein; also called epidermal growth factor receptor; Fc part of the bought chimera not given
The experiment is described as above.

In experiment [5] the target is T5, rHuman HGF R/c-MET/Fc Chimera, CF (R&D Systems Cat#358-MT/CF) (human, UniProt P08581 25-932).
T5 construct: Bought recombinant protein; also called HGF R/Fc; hepatocyte growth factor receptor; Fc part of the bought chimera not given
The description is as above.

The target of experiment [6] is T6, rHuman Notch-1/Fc Chimera, CF (R&D Systems Cat#3647-TK) (human, UniProt P46531 19-526).
T6 construct: Bought recombinant protein; Fc part of the bought chimera not given
The experiment is described as above.

The target of experiment [7] is T7, rHuman CD44/Fc Chimera, CF (R&D Systems Cat#3660-CD) (human, UniProt P16070 21-220).
T7 construct: Bought recombinant protein; Fc part of the bought chimera not given
The description is as above.

Experiment [8] addresses T8, rHuman IGF-1 sR, CF (R&D Systems Cat#391-GR) (human, UniProt P08069 31-932).
T8 construct: Bought recombinant soluble receptor; also called insulin-like growth factor-1 soluble receptor
The experiment is described as above.

Experiment [9] has as its target T9, rHuman P-Cadherin/Fc Chimera, CF (R&D Systems Cat#861-PC) (human, UniProt P22223 108-654).
T9 construct: Bought recombinant protein; Fc part of the bought chimera not given
The experiment is described as above.

Experiment [10] deals with T10, rHuman Erythropoietin R/Fc Chimera, CF (R&D Systems Cat#963-ER) (human, UniProt P19235 25-250).
T10 construct: Bought reagent; also called EPO R; EPO R/Fc; Fc part of the bought chimera not given
T10 sequence (looked up): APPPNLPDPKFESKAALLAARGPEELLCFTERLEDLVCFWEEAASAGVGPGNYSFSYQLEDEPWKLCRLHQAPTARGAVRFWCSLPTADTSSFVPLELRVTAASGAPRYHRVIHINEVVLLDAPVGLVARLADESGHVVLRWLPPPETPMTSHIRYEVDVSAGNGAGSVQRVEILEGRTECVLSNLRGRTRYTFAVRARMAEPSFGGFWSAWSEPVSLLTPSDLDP
The experiment in a line: ECL Multispot (MSD) assay, antigen spotted on plate, 10 nM Fab; blank spot of this row 472.

Experiment [11] addresses T11, rHuman ErbB2/Fc Chimera, CF (R&D Systems Cat#1129-ER) (human, UniProt P04626 23-652).
T11 construct: Bought reagent; also called human epidermal growth factor 2 receptor; Fc part of the bought chimera not given
Described as above.

Experiment [12] concerns the target T12, rHuman HGF R/c-MET/Fc Chimera, CF (R&D Systems Cat#358-MT/CF) (human, UniProt P08581 25-932).
T12 construct: Bought reagent; also called HGF R/Fc; hepatocyte growth factor receptor; Fc part of the bought chimera not given
The experiment is described as above.

Experiment [13] concerns the target T13, rHuman Notch-1/Fc Chimera, CF (R&D Systems Cat#3647-TK) (human, UniProt P46531 19-526).
T13 construct: Bought reagent; Fc part of the bought chimera not given
The experiment is described as above.

The target of experiment [14] is T14, Recombinant Human DLL4 (R&D Systems Cat#1506-D4/CF) (human, UniProt Q9NR61 27-524).
T14 construct: Bought recombinant protein; also called rHuman DLL4; delta-like protein 4
The experiment in a line: Multispot ECL (MSD), antigen spotted on plate, Fab 125 nM; blank spot 403.

In experiment [15] the target is T15, rHuman Notch-1/Fc Chimera, CF (R&D Systems Cat#3647-TK) (human, UniProt P46531 19-526).
T15 construct: Bought recombinant protein; Fc part of the bought chimera not given
The experiment is described as above.

Experiment [16] has as its target T16, rHuman IGF-1 sR, CF (R&D Systems Cat#391-GR) (human, UniProt P08069 31-932).
T16 construct: Bought recombinant soluble receptor; also called insulin-like growth factor-1 soluble receptor
The experiment is described as above.

Experiment [17] deals with T17, rHuman Erythropoietin R/Fc Chimera, CF (R&D Systems Cat#963-ER) (human, UniProt P19235 25-250).
T17 construct: Bought recombinant protein; also called EPO R/Fc; Epo R; Fc part of the bought chimera not given
T17 sequence (looked up): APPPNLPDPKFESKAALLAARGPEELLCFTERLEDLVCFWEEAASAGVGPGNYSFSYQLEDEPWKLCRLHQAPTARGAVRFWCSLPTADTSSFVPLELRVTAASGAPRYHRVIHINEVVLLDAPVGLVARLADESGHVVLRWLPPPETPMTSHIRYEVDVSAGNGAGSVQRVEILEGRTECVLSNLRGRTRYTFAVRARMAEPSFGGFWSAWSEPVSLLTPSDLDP
The experiment is described as above.

Experiment [18] addresses T18, Recombinant Human DLL4 (R&D Systems Cat#1506-D4/CF) (human, UniProt Q9NR61 27-524).
T18 construct: Bought recombinant protein; also called delta-like protein 4; rHuman DLL4
Briefly: Multispot ECL (MSD) titration; antigen spotted on plate; Fab 24.5 nM; blank spot 149.

B1: Fab VH4-34_IGHD7-27*01_IGHJ4*01 & L5_IGKJ1*01 (Fab, V domains shown)
VH: QVQLQQWGAGLLKPSETLSLTCAVYGGSFSGYYWSWIRQPPGKGLEWIGEINHSGSTNYNPSLKSRVTISVDTSKNQFSLKLSSVTAADTAVYYCARANWGDYFDYWGQGTLVTVSS
VL: DIQMTQSPSSVSASVGDRVTITCRASQGISSWLAWYQQKPGKAPKLLIYAASSLQSGVPSRFSGSGSGTDFTLTISSLQPEDFATYYCQQANSFPPWTFGQGTKVEIKR
notes: Germline library Fab expressed in E. coli; VH was cloned into Plasmid A, which adds CH1 with His6 and Flag tags
Turning to B1, the ECL signal in experiment [1] was 2620; in experiment [2] it was 5180; in [3], 1530; in [4] it was 2360; in [5], 1990; in [6] it was 2770. In addition, the ECL signal in experiment [7] is 2010; in [8], 2240; in experiment [9], 2390.

B2: Fab VH1-46_IGHD6-6*01_IGHJ1*01 S102A/S103P/S104F (APF) & L6_IGKJ1*01 (Fab, V domains shown)
VH: QVQLVQSGAEVKKPGASVKVSCKASGYTFTSYYMHWVRQAPGQGLEWMGIINPSGGSTSYAQKFQGRVTMTRDTSTSTVYMELSSLRSEDTAVYYCAREEYAPFSAEYFQHWGQGTLVTVSS
VL: not shown
notes: Tested as a Fab made in E. coli; also called H:APF & L:wt; APF triple mutant
Turning to B2, the ECL signal in experiment [10] was 480; in [11], 391; in experiment [12] it was 426; in [13], 299.

B3: Fab VH1-46_IGHD6-13*01_IGHJ4*01 & B3_IGKJ1*01 (Fab, V domains shown)
VH: QVQLVQSGAEVKKPGASVKVSCKASGYTFTSYYMHWVRQAPGQGLEWMGIINPSGGSTSYAQKFQGRVTMTRDTSTSTVYMELSSLRSEDTAVYYCAREGYSSSWYDYFDYWGQGTLVTVSS
VL: not shown
notes: Germline Fab made in E. coli; VH was cloned into Plasmid A (CH1, His6 and Flag tags) and the kappa VL into Plasmid C (kappa CL)
Regarding B3, the ECL signal in experiment [14] was 912; in experiment [15], 802; in experiment [16], 654; in [17], 9240.

B4: Fab VH1-46_IGHD3-10*01_IGHJ4*01 & O1_IGKJ1*01 (Fab, V domains shown)
VH: QVQLVQSGAEVKKPGASVKVSCKASGYTFTSYYMHWVRQAPGQGLEWMGIINPSGGSTSYAQKFQGRVTMTRDTSTSTVYMELSSLRSEDTAVYYCAREYYYGSGSYYNDYFDYWGQGTLVTVSS
VL: DIVMTQTPLSLPVTPGEPASISCRSSQSLLDSDDGNTYLDWYLQKPGQSPQLLIYTLSYRASGVPDRFSGSGSGTDFTLKISRVEAEDVGVYYCMQRIEFPSWTFGQGTKVEIKR
notes: Germline library Fab expressed in E. coli; VH was cloned into Plasmid A (CH1 constant region, His6 and Flag tags); The kappa VL was cloned into Plasmid C (kappa CL)
As to B4, the ECL signal in [18] worked out at 339.
